The results in this text go back to publication PMC12521527, “In vivo self-assembled nano-PROTAC for the dual degradation of AR and HSP90 to overcome castration-resistant prostate cancer resistance” (Signal Transduction and Targeted Therapy, 2025).

Data set [1] in a line: ThT assay of self-assembly (critical assembly concentration, assembly kinetics). It is filed as physicochemical.
The test system of a further data set is AR-V7. Put plainly: Western blot AR-V7 degradation in 22Rv1 cells. Format: cell-based. Conditions: 22Rv1, 20 μM, 48 h. How it is done: All uncropped blots are presented in Supplementary Fig. 26. j, k Representative 22Rv1 cell CLSM images of the degradation of AR after incubation with FITC-labeled Psa-AR for 12 h and quantitative analysis, n = 3 per group. Scale bar: 10 μm. l, m Representative 22Rv1 cell CLSM images of the degradation of HSP90 after incubation with FITC-labeled Psa-AR for 12 h and quantitative analysis, n = 3 per group. Scale bar: 10 μm. n AR-V7 expression in 22Rv1 cells after treatment with PBS, P-AR (20 μM), Psa-AR (20 μM) or Psa-AR (20 μM) combined with MG132 (2 μM) for 48 h, as determined by western blotting. β-Actin was used as an internal reference. o Results of apoptosis in 22Rv1 cells treated with PBS, P-AR (20 μM), or Psa-AR (20 μM) for 48 h, as detected by flow cytometry.
The pretreated cells were resuspended in lysis buffer containing 50 mM Tris-HCl (pH 8.0), 150 mM NaCl, 1% (v/v) Triton X-100, and protease inhibitors. The protein concentration was determined via a BCA kit (Applygen). Each sample ([…]) was subjected to SDS‒PAGE and then transferred to a PVDF membrane. The blots were blocked in 5% (wt/v) blocking buffer. After washing three times with TBST buffer (10 mM TBS solution containing 0.1% (v/v) Tween-20), the blots were incubated with primary antibodies at 4 °C on a shaker for 16 h. […]

Data set [2] in a line: TEM of assemblies after PSMA addition. Format: physicochemical. The conditions noted are these: 40 μM, within 0.5 h of PSMA engagement.
Data set [3] is described as follows: Cellular cytotoxicity, LNCaP. Format: cell-based. Conditions: human, LNCaP cells.
For a further data set, the system named is 22Rv1 (PSMA^high) cells. Put plainly: Flow cytometry uptake of FITC-labeled conjugates in 22Rv1 cells. The conditions noted are these: 40 µM, 24 h, n = 3. Format: cell-based. How it is done:
Fig. 2 a Representative 22Rv1 cell CLSM images of FITC-labeled Psa-AR (40 μM) assembly (green channel) interacting with PSMA (red channel) and its colocalization analysis (1–1’). Scale bar: 10 μm. b Representative SEM images of 22Rv1 cells after treatment with Psa-AR (40 μM) for 4 h. Scale bar: 1 μm. Scale bar: 200 nm (zoom in). c Representative 22Rv1 cell CLSM images of FITC-labeled P-AR (40 μM) (green channel) interacting with PSMA (red channel). Scale bar: 10 μm. d Representative SEM images of 22Rv1 cells after treatment with P-AR (40 μM) for 4 h. Scale bar: 1 μm. Scale bar: 200 nm (zoom in). e The uptake of either Psa-AR or P-AR by 22Rv1 (PSMA^high) and RWPE-1 (PSMA^low) cells was examined by flow cytometry, followed by comprehensive quantitative analysis (f), n = 3 per group. g Representative 22Rv1 cell CLSM images of FITC-labeled Psa-AR assembly (green channel) with lysosomes (red channel) and colocalization analysis. Scale bar: 10 μm. h Representative CLSM images of 22Rv1 cells after incubation with FITC-labeled Psa-AR (green channel) for 12 h. […]
A total of 1 × 10^5 22Rv1 cells per well were seeded in 6-well plates in DMEM containing 10% fetal bovine serum and 1% penicillin‒streptomycin. […] Then, the cells were collected to evaluate fluorescence expression via flow cytometry. […] The cells were then collected and analyzed for fluorescence expression via flow cytometry.

A further data set concerns HSP90. Put plainly: HSP90 degradation in LNCaP cells. Format: cell-based. Conditions: time-dependent evaluation. The procedure:
The pretreated cells were resuspended in lysis buffer containing 50 mM Tris-HCl (pH 8.0), 150 mM NaCl, 1% (v/v) Triton X-100, and protease inhibitors. The protein concentration was determined via a BCA kit (Applygen). Each sample ([…]) was subjected to SDS‒PAGE and then transferred to a PVDF membrane. The blots were blocked in 5% (wt/v) blocking buffer. After washing three times with TBST buffer (10 mM TBS solution containing 0.1% (v/v) Tween-20), the blots were incubated with primary antibodies at 4 °C on a shaker for 16 h. After washing with TBST buffer three times, the blot was incubated with secondary antibodies at room temperature on a shaker for 2 h. After being washed three times with TBST buffer, the blots were subsequently scanned on a Typhoon Trio Variable Mode Imager.

A further data set deals with 22Rv1 cells. Format: cell-based. The conditions noted are these: n = 6, read-out: IC50, cell viability.
In the next data set the test system is RWPE-1 cells. Nature of the data set: Cytotoxicity in normal RWPE-1 cells. Conditions: PSMA^low normal RWPE-1 cells, 1–100 μM, 48 h of exposure. Format: cell-based.
Data set [4] deals with CRBN, with prebound AR (AR: Psa-AR: CRBN) (Homo sapiens, UniProt P10275+Q96SW2). Put plainly: MST binding of binary complex (Psa-AR: AR) to CRBN. The conditions noted are these: binary complex Psa-AR: AR titrated against RED-CRBN 400 nM, 20 min incubation, 22 °C, n = 3, read-out: Kd, affinity for CRBN in the presence of prebound AR. The source says:
Fig. 3 Polynary nanocomposite (AR: Psa-AR: CRBN) formation. a Dose‒response curve for the binding interaction between Psa-AR and the AR protein; n = 3 per group. b Dose‒response curve for the binding interaction between Psa-AR and the CRBN protein; n = 3 per group. c Dose‒response curve for the binding interaction between the binary complex (Psa-AR: AR) and CRBN, n = 3 per group. d In vitro Psa-AR self-assembly, protein binding and degradation. e Representative 22Rv1 cell CLSM images of FITC-labeled Psa-AR assembly (green channel) interacting with HSP90 (red channel) and its colocalization analysis (1–1’). […] Scale bar: 10 μm.
MST (NanoTemper Technologies GmbH, Munich, Germany) was utilized to evaluate the binding affinity between Psa-AR and RED-NHS-labeled PSMA, AR, or CRBN proteins. The PSMA, AR, and CRBN proteins were labeled with the Protein Labeling Kit RED-NHS 2nd Generation (Amine Reactive). RED-PSMA, RED-AR, and RED-CRBN proteins were diluted to a final concentration of 400 nM with PBS-T buffer (0.05% Tween 20), where the fluorescence signals satisfied the typical detection limit of the Monolith NT.115 instrument (NanoTemper Technologies). The binding affinity between Psa-AR and the RED-NHS-labeled AR protein was assessed. […] Then, 10 µL of RED-CRBN was added to each sample to achieve a final concentration of 400 nM. […] The data were analyzed by NanoTemper analysis software.

Structures are written as SMILES. Numbered stars: 1 amine (or outer) side, 2 acyl side, 3 side chain; on linkers, the order of the positions; unused ones are H or OH. Square brackets hold non-standard residues; d marks the D form. Peptide text beside a SMILES is read from it. * marks the point of attachment. X2 = CC1(C)C(=O)N(c2ccc(C#N)c(C(F)(F)F)c2)C(=S)N1c1ccc(C(=O)*)c(F)c1; X1 = O=C1CCC(N2C(=O)c3cccc(N(CC(=O)[*:2])[*:1])c3C2=O)C(=O)N1; EuK = O=C(O)CC[C@H](NC(=O)N[C@@H](CCCCN*)C(=O)O)C(=O)O; 2Nal = N[C@@H](Cc1ccc2ccccc2c1)C(=O)O

Sequence of CRBN, with prebound AR (AR: Psa-AR: CRBN) (Q96SW2 whole entry): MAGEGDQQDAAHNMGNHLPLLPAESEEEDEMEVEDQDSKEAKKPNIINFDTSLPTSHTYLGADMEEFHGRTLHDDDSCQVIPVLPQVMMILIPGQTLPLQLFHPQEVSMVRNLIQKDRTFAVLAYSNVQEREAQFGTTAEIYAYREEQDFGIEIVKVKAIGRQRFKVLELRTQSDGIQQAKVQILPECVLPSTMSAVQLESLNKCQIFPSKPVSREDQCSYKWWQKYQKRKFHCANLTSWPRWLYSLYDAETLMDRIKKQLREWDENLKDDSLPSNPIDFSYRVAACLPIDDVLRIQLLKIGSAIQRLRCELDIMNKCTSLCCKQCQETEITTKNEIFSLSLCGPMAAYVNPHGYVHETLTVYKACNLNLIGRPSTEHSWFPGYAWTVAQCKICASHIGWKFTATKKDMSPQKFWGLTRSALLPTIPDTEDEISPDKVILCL
Sequence of CRBN, with prebound AR (AR: Psa-AR: CRBN) (P10275 whole entry): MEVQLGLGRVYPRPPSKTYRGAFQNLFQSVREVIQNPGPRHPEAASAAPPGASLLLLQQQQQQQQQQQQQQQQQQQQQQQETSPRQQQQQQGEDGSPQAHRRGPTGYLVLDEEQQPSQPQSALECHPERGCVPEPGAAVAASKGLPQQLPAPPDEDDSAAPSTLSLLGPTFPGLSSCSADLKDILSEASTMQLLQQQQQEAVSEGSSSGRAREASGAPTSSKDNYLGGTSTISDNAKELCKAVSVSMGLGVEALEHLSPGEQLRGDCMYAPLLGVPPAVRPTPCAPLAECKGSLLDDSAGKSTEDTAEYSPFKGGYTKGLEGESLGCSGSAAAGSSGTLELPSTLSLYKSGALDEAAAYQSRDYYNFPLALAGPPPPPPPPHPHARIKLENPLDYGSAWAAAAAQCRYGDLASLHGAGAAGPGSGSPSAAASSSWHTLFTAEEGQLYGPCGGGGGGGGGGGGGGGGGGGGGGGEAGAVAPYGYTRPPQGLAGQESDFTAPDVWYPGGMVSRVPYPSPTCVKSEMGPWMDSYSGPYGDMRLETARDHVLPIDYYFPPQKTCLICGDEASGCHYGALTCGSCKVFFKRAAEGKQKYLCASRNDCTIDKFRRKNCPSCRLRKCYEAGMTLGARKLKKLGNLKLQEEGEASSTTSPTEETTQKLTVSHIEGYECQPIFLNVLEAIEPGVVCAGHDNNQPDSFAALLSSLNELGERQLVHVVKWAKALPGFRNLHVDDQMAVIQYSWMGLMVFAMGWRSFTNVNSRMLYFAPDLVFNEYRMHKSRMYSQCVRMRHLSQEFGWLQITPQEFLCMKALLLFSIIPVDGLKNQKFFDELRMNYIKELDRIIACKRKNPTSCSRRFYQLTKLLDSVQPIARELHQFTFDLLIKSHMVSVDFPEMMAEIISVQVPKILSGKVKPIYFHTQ

`CC1(C)C(=O)N(c2ccc(C#N)c(C(F)(F)F)c2)C(=S)N1c1ccc(C(=O)NCCCC[C@H](NC(=O)CNc2cccc3c2C(=O)N(C2CCC(=O)NC2=O)C3=O)C(=O)N[C@@H](CS)C(=O)N[C@@H](CCC(N)=O)C(=O)N[C@@H](Cc2ccc(O)cc2)C(=O)N[C@@H](CC(N)=O)C(=O)N[C@@H](CCC(N)=O)C(=O)N[C@@H](Cc2ccc(O)cc2)C(=O)N[C@@H](Cc2ccc(O)cc2)C(=O)N[C@@H](Cc2ccc3ccccc3c2)C(=O)NCCCC[C@H](NC(=O)N[C@@H](CCC(=O)O)C(=O)O)C(=O)O)c(F)c1` (stereo partly drawn) [Psa-AR] (H-[X1]K(X2)CQYNQYY[2Nal]-EuK): the “lowering of CAC by PSMA binding” value in data set [1] (ThT assay, 95.5–10.9 μM) is listed as 8.76 fold. In addition, in data set [1] (ThT kinetic curve, 40 μM, PSMA added), the “time to full assembly equilibrium, PSMA-bound” value was found to be 12 h. Moreover, the “t1/2 of self-assembly (50% assembly), PSMA-bound” value in [1] (ThT kinetic curve, 40 μM, PSMA added, n = 3) turned out to be 1.4 h. Moreover, the “time to full assembly equilibrium, unbound” value in [1] (ThT kinetic curve, 40 μM, without PSMA) came out at 60 h. Further, in data set [1] (ThT kinetic curve, 40 μM, without PSMA, n = 3), the “t1/2 of self-assembly (50% assembly), unbound” value worked out at 11.4 h. The “critical assembly concentration (CAC) with PSMA added” value in data set [1] (standard ThT assay, PSMA added, n = 3, P-AR tested up to 50 μM) amounted to 10.9 µM. For the same molecule, in data set [1] (standard ThT assay, without PSMA, n = 3), the “critical assembly concentration (CAC)” value was found to be 95.5 µM. Also, the “greater AR-V7 degradation than P-AR” value in the data set on AR-V7 was 66%. In addition, the “diameter of spherical nanoparticles” value in [2] is given as 200–250 nm. Also, the IC50 in data set [3] turned out to be 11.1 ± 1.4 µM; in the data set with 22Rv1 cells, 10.9 ± 1.1 µM. In addition, the “uptake efficiency relative to nonassembling P-AR” value in the data set on 22Rv1 (PSMA^high) cells stood at 5 fold. The same molecule displayed an HSP90 degradation rate in the data set with HSP90 of 70%. For the same molecule, the “cell viability relative to vehicle controls” value in the data set on RWPE-1 cells is “above 90%”. Further, the Kd in data set [4] was 1.14 µM.
